To fix the notation:
B1: CpoB^TPR (CpoB^139-263), C-terminal TetratricoPeptide Repeat domain of CpoB (domain or fragment, E. coli, UniProt P45955 139-263, looked up)
chain: SGNANTDYNAAIALVQDKSRQDDAMVAFQNFIKNYPDSTYLPNANYWLGQLNYNKGKKDDAAYYFASVVKNYPKSPKAADAMFKVGVIMQDKGDTAKAKAVYQQVISKYPGTDGAKQAQKRLNAM
notes: CpoB, E. coli, residues 139-263 (TPR domain), in pET28a with a thrombin cleavage site; In the PRE NMR one of the partners was 15N-labelled, the other spin labelled at random on lysines with OXYL-1-NHS; also called C-terminal TPR domain; source: E. coli BL21(DE3), purified (HisTrap, Superdex 200)

What all share (conditions): both partners purified
The target of assay [1] is T1, PBP1B (wild type, PBP1B^46-844) (E. coli, UniProt P02919 46-844).
T1 construct: PBP1B, E. coli, residues 46-844, encoded on pDML924; Immobilised on the SPR chip as in Egan et al. 2014 / Gray et al. 2015; also called WT PBP1B; WT; source: E. coli BL21(DE3), purified (membrane extract, HisTrap, thrombin, HiTrap SP ion exchange)
T1 sequence (looked up): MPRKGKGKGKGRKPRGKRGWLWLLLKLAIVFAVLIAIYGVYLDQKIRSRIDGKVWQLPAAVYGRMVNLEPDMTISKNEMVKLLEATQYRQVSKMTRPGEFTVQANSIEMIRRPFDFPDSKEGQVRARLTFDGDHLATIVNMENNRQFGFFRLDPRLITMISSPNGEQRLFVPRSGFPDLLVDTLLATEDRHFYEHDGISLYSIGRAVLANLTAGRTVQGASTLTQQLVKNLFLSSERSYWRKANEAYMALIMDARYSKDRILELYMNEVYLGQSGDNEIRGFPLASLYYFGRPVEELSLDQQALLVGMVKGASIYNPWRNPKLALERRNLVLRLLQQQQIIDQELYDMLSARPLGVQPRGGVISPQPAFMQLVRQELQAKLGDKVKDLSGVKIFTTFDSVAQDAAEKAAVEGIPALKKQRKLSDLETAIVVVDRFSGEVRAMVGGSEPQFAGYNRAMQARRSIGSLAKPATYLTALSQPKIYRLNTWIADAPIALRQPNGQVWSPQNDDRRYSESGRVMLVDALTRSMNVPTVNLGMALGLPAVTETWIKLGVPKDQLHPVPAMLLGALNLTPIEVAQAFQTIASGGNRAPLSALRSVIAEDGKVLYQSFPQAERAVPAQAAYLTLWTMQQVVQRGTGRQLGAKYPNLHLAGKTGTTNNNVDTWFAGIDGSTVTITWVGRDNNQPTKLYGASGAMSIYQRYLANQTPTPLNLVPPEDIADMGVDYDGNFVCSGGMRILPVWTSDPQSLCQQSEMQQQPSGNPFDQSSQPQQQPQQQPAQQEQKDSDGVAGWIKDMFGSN
As to the kind of experiment: SPR; PBP1B versions immobilised to the chip surface; CpoB versions injected from either 3.9 nM to 2 μM or from 78 nM to 40 μM; apparent KD by non-linear regression, at least three independent experiments.

The target of assay [2] is T1, PBP1B (wild type, PBP1B^46-844). Described as above. The source holds these as a separate data set.
Assay [3] concerns the target B1. As to the kind of experiment: paramagnetic relaxation enhancement (PRE) NMR; 100 µM 15N-labelled protein with the partner spin labelled at random on lysines, molar ratio 1:2, 2D HN-HSQC at 850 MHz, 20°C; intensity ratio before and after reduction with sodium ascorbate; done in both directions (15N-CpoB with spin labelled UB2H, 15N-UB2H with spin labelled CpoB).

For B1, in assay [1], the Kd is 4.9 µM.

B2: CpoB^TPR+link (CpoB^110-263) (domain or fragment, E. coli, UniProt P45955 110-263, looked up)
chain: STSGDQSGAAASTTPTADAGTANAGAPVKSGNANTDYNAAIALVQDKSRQDDAMVAFQNFIKNYPDSTYLPNANYWLGQLNYNKGKKDDAAYYFASVVKNYPKSPKAADAMFKVGVIMQDKGDTAKAKAVYQQVISKYPGTDGAKQAQKRLNAM
notes: CpoB, E. coli, residues 110-263 (inter-domain linker and TPR domain), in pET28a with a thrombin cleavage site; also called CpoB^TPR version with this linker (res. 110–263); source: E. coli BL21(DE3), purified (HisTrap, Superdex 200)
As for B2, in assay [2], the binding result is reported as “binds”.

B3: UB2H domain of PBP1B (PBP1B^108–200) (domain or fragment, E. coli, UniProt P02919 108-200, looked up)
chain: GRMVNLEPDMTISKNEMVKLLEATQYRQVSKMTRPGEFTVQANSIEMIRRPFDFPDSKEGQVRARLTFDGDHLATIVNMENNRQFGFFRLDPR
notes: PBP1B, E. coli, residues 108 to 200 (UB2H domain), in pET28a with a thrombin cleavage site; [13C,15N]- or 15N-labelled for NMR; in the reciprocal PRE experiment spin labelled at random on lysines with OXYL-1-NHS; source: E. coli BL21(DE3), isotopically labelled in M9 medium, purified (HisTrap, Superdex 200)
Regarding B3, the binding result in assay [3] is given as “binds”.

The values above are taken from PMC6220978, “Induced conformational changes activate the peptidoglycan synthase PBP1B” (Molecular Microbiology, 2018).
